Target: T1, myostatin (Homo sapiens, UniProt O14793)
T1 construct: To produce mature myostatin, the pooled promyostatin was enzymatically cleaved between the propeptide and mature myostatin C terminal; made in house
T1 sequence (O14793 267-375): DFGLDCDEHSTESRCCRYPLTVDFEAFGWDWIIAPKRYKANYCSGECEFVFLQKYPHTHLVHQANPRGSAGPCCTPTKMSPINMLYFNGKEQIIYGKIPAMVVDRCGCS
Assay: BIAcore affinity analysis on immobilized myostatin
Type: binding
Details: Biacore assay
Description: The antagonists including the binding agents described herein can be tested for their ability to bind myostatin and inhibit or block myostatin activity. Any number of assays or animal tests may be used to determine the ability of the agent to inhibit or block myostatin activity. Several assays used for characterizing the peptides and peptibodies of the present invention are described in the Examples below. One assay is the C2C12 pMARE-luc assay which makes use of a myostatin-responsive cell line (C2C12 myoblasts) transfected with a luciferase reporter vector containing myostatin/activin response elements (MARE). Exemplary peptibodies are assayed by pre-incubating a series of peptibody dilutions with myostatin, and then exposing the cells to the incubation mixture. The resulting luciferase activity is determined, and a titration curve is generated from the series of peptibody dilutions. The IC50 (the concentration of peptibody to achieve 50% inhibition of myostatin activity as measured by luciferase activity) was then determined. […]
Direct binding assays were used to screen and rank the peptibodies in order of their ability to bind to immobilized myostatin. […] Peptibody binding kinetic parameters including ka (association rate constant), kd (dissociation rate constant) and KD (dissociation equilibrium constant) were determined using the BIA evaluation 3.1 computer program (Biacore, Inc.). […]

B1: ActRIIB/Fc: soluble receptor fusion protein actRIIB/Fc (R &D Systems) (protein)
chain: SGRGEAETRECIYYNANWELERTNQSGLERCEGEQDKRLHCYASWRNSSGTIELVKKGCWLDDFNCYDRQECVATEENPQVYFCCCEGNFCNERFTHLPEAGGPEVTYEPPPTAPT
modifications: left off: a dimerising Fc or GST
B1 was tested, and the Kd was roughly 7 nM.
